Measurements: US20220259330A1 (SUNSHINE GUOJIAN PHARMACEUTICAL SHANGHAI, published 2022)
“And” between values parts separate entries of the source, which are not always exact repeats. Equal values may be shown once.

B1: 14-Hu-HC+1D11-Hu-LC (antibody, human IgG4 S228P, kappa, V domains shown)
VH: QVQLVQSGAEVKKPGASVKVSCKASGYSFTGYTMNWVRQAPGQGLEWIGLINPYNGDTSYNQKFKGRATVTVDKSTSTAYMELSSLRSEDTAVYYCARWRYTMDYWGQGTLVTVSS
VL: DIVLTQSPASLAVSPGQRATITCRASESVDSYGNSFMHWYQQKPGQPPKLLIYLASNLESGVPARFSGSGSGTDFTLTINPVEADDTANYYCQQNNEDPLTFGGGTKVELKR
notes: Hybrid antibody
B2: 1D11-Hu (antibody, human IgG4 S228P, kappa, V domains shown)
VH: QVQLVQSGAEVKKPGASVKVSCKASGYIFITYWMNWVRQAPGQGLEWIGQIFPASGSTNYNEMFEGRATLTVDTSTSTAYMELSSLRSEDTAVYYCARGDGNYALDAMDYWGQGTLVTVSS
VL: DIVLTQSPASLAVSPGQRATITCRASESVDSYGNSFMHWYQQKPGQPPKLLIYLASNLESGVPARFSGSGSGTDFTLTINPVEADDTANYYCQQNNEDPLTFGGGTKVELKR
notes: Humanized anti-TGF-β, IgG4 (S228P), kappa; also called 1D11-Hu-HC+1D11-Hu-LC
B3: 1D11-Hu-HC+14-Hu-LC (antibody, human IgG4 S228P, kappa, V domains shown)
VH: QVQLVQSGAEVKKPGASVKVSCKASGYIFITYWMNWVRQAPGQGLEWIGQIFPASGSTNYNEMFEGRATLTVDTSTSTAYMELSSLRSEDTAVYYCARGDGNYALDAMDYWGQGTLVTVSS
VL: DIVLTQSPASLAVSPGQRATITCRASESVDNYGNSFMNWYQQKPGQPPKPLIYFASNLESGVPARFSGSGSRTDFTLTINPVEADDTANYYCQQNNEAPPTFGQGTKVEIKR
notes: Hybrid antibody
B4: mAb127 (antibody, human IgG4 S228P, kappa, V domains shown)
VH: QVQLVQSGAEVKKPGASVKVSCKASGYTFTSEWMNWVRQAPGQGLEWMGQIFPALGSTNYNEMYEGRVTMTTDTSTSTAYMELRSLRSDDTAVYYCARGIGNYALDAMDYWGQGTLVTVSS
VL: DIQMTQSPSSLSASVGDRVTITCRASESVDFYGNSFMHWYQQKPGKAPKLLIYLASNLESGVPSRFSGSGSGTDFTLTISSLQPEDFATYYCQQNIEDPLTFGGGTKVEIKR
notes: Anti-TGF-β, IgG4 (S228P), kappa; also called mAb127-HC+mAb127-LC
B5: 19H6-Hu-HC+94-Hu-LC (antibody, human IgG1, kappa, V domains shown)
VH: QVQLVQSGAEVKKPGASVKVSCKGSGYTFTDYAIHWVRQAPGQSLEWIGVFSIYYENINYNQKFKGRATMTVDKSTSTAYMELRSLRSDDTAVYYCARRDGGTINYWGQGTLVTVSS
VL: DVVMTQSPLSLPVTLGQPASISCRSSQSLLHSNGNTYLHWYQQRPGQSPRLLFYKVSNRFSGVPDRFSGSGSGTDFTLKISRVEAEDVGVYFCSQSTHVPWTFGQGTKVEIKR
notes: Hybrid antibody
B6: 94-Hu (antibody, human IgG1, kappa, V domains shown)
VH: QVQLQESGPGLVKPSETLSLTCTVSGFSLSSYDISWIRQPPGKGLEWLGVIWTGGGTNYNSAFMSRLTISKDNSKSQVSLKLSSVTAADTAVYYCVRMDYWGQGTLVTVSS
VL: DVVMTQSPLSLPVTLGQPASISCRSSQSLLHSNGNTYLHWYQQRPGQSPRLLFYKVSNRFSGVPDRFSGSGSGTDFTLKISRVEAEDVGVYFCSQSTHVPWTFGQGTKVEIKR
notes: Humanized anti-human CD137, IgG1, kappa; also called 94-Hu-HC+94-Hu-LC
B7: 94-Hu-HC+19H6-Hu-LC (antibody, human IgG1, kappa, V domains shown)
VH: QVQLQESGPGLVKPSETLSLTCTVSGFSLSSYDISWIRQPPGKGLEWLGVIWTGGGTNYNSAFMSRLTISKDNSKSQVSLKLSSVTAADTAVYYCVRMDYWGQGTLVTVSS
VL: DVVMTQSPLSLPVTLGQPASISCRSSQSLVHSNGNTYLHWYQQRPGQSPRLLIYKVSNRFSGVPDRFSGSGSGTDFTLKISRVEAEDVGVYFCSQSTHIPWTFGQGTKVEIKR
notes: Hybrid antibody
B8: 14-Fab-1D11-IgG4 (bispecific antibody)
heavy: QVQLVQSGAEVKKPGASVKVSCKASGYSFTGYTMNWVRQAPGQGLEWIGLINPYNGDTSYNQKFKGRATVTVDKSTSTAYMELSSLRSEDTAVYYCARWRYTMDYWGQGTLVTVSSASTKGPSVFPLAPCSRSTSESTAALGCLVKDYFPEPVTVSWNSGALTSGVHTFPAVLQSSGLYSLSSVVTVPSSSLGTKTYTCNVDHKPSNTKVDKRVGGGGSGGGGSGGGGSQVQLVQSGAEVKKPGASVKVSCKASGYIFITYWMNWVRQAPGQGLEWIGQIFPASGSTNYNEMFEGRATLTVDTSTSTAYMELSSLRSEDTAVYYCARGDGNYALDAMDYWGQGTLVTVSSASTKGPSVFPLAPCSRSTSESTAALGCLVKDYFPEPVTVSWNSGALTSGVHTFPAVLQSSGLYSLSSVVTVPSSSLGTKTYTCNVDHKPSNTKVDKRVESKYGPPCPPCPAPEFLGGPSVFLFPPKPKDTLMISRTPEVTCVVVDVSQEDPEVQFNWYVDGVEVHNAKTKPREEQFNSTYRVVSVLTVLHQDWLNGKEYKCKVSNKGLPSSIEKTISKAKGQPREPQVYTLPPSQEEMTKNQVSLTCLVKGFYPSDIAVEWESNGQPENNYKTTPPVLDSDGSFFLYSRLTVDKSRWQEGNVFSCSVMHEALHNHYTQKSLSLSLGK
light: DIVLTQSPASLAVSPGQRATITCRASESVDNYGNSFMNWYQQKPGQPPKPLIYFASNLESGVPARFSGSGSRTDFTLTINPVEADDTANYYCQQNNEAPPTFGQGTKVEIKRTVAAPSVFIFPPSDEQLKSGTASVVCLLNNFYPREAKVQWKVDNALQSGNSQESVTEQDSKDSTYSLSSTLTLSKADYEKHKVYACEVTHQGLSSPVTKSFNRGEC
B9: 1D11-Fab-14-IgG4 (bispecific antibody)
heavy: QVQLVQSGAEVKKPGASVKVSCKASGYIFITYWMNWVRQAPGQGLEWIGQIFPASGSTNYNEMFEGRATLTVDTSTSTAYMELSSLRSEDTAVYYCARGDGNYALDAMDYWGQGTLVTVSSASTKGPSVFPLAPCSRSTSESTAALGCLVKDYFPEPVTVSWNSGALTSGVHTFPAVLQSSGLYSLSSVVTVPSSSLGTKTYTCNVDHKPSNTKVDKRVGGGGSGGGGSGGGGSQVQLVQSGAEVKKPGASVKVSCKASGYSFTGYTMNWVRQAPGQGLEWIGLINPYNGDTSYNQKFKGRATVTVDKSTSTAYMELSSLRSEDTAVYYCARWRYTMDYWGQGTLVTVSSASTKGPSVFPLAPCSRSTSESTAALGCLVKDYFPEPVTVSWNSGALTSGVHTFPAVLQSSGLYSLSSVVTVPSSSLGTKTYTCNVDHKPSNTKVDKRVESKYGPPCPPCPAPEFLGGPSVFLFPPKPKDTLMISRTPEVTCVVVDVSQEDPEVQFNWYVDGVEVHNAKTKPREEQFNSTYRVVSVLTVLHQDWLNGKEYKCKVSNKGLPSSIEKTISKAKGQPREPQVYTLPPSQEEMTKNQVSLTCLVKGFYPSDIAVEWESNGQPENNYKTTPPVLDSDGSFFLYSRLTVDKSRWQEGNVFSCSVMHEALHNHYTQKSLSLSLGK
light: DIVLTQSPASLAVSPGQRATITCRASESVDNYGNSFMNWYQQKPGQPPKPLIYFASNLESGVPARFSGSGSRTDFTLTINPVEADDTANYYCQQNNEAPPTFGQGTKVEIKRTVAAPSVFIFPPSDEQLKSGTASVVCLLNNFYPREAKVQWKVDNALQSGNSQESVTEQDSKDSTYSLSSTLTLSKADYEKHKVYACEVTHQGLSSPVTKSFNRGEC
B10: 127-Fab-14-IgG4 (bispecific antibody)
heavy: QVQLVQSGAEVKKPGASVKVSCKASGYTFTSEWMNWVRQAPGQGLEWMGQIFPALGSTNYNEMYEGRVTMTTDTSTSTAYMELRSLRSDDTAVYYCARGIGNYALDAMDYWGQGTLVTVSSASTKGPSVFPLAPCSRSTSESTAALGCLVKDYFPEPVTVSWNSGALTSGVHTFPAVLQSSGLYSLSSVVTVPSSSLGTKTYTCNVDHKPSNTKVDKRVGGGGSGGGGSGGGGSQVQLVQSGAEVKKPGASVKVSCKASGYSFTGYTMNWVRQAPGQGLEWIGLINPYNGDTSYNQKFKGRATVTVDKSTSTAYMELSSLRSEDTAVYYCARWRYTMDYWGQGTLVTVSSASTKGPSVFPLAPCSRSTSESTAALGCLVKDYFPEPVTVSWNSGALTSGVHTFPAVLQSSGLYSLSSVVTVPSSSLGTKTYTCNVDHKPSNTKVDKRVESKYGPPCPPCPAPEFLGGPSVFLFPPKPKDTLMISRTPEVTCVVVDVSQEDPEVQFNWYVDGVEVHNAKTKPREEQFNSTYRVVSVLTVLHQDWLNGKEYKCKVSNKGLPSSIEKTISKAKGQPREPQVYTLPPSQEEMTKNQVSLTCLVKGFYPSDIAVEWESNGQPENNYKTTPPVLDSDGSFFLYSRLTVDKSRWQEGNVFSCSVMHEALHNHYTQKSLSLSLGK
light: DIVLTQSPASLAVSPGQRATITCRASESVDNYGNSFMNWYQQKPGQPPKPLIYFASNLESGVPARFSGSGSRTDFTLTINPVEADDTANYYCQQNNEAPPTFGQGTKVEIKRTVAAPSVFIFPPSDEQLKSGTASVVCLLNNFYPREAKVQWKVDNALQSGNSQESVTEQDSKDSTYSLSSTLTLSKADYEKHKVYACEVTHQGLSSPVTKSFNRGEC
B11: 20-Hu-HC+601-LC-D28G (antibody, human IgG4 S228P, kappa, V domains shown)
VH: EVQLVESGGGLVQPGGSLRLSCAASGFVFSNYDMSWVRQAPGKRLEWVATISGGGGYTYYSDSVKGRFTISRDNAKNSLYLQMNSLRAEDTAVYYCASPYGHYGFEYWGQGTLVTVSS
VL: DIQMTQSPSSLSASVGDRVTITCSASQGISNYLNWYQQKPGKAPKVLIYFTSSLHSGVPSRFSGSGSGTDFTLTISSLQPEDFATYYCQQYSTVPWTFGQGTKVEIKR
B12: 20-Hu-HC+601-LC-F71Y (antibody, human IgG4 S228P, kappa, V domains shown)
VH: EVQLVESGGGLVQPGGSLRLSCAASGFVFSNYDMSWVRQAPGKRLEWVATISGGGGYTYYSDSVKGRFTISRDNAKNSLYLQMNSLRAEDTAVYYCASPYGHYGFEYWGQGTLVTVSS
VL: DIQMTQSPSSLSASVGDRVTITCSASQDISNYLNWYQQKPGKAPKVLIYFTSSLHSGVPSRFSGSGSGTDYTLTISSLQPEDFATYYCQQYSTVPWTFGQGTKVEIKR
B13: 20-Hu-HC+601-LC-V46L (antibody, human IgG4 S228P, kappa, V domains shown)
VH: EVQLVESGGGLVQPGGSLRLSCAASGFVFSNYDMSWVRQAPGKRLEWVATISGGGGYTYYSDSVKGRFTISRDNAKNSLYLQMNSLRAEDTAVYYCASPYGHYGFEYWGQGTLVTVSS
VL: DIQMTQSPSSLSASVGDRVTITCSASQDISNYLNWYQQKPGKAPKLLIYFTSSLHSGVPSRFSGSGSGTDFTLTISSLQPEDFATYYCQQYSTVPWTFGQGTKVEIKR
B14: 20-Hu-HC+601-LC-F50Y (antibody, human IgG4 S228P, kappa, V domains shown)
VH: EVQLVESGGGLVQPGGSLRLSCAASGFVFSNYDMSWVRQAPGKRLEWVATISGGGGYTYYSDSVKGRFTISRDNAKNSLYLQMNSLRAEDTAVYYCASPYGHYGFEYWGQGTLVTVSS
VL: DIQMTQSPSSLSASVGDRVTITCSASQDISNYLNWYQQKPGKAPKVLIYYTSSLHSGVPSRFSGSGSGTDFTLTISSLQPEDFATYYCQQYSTVPWTFGQGTKVEIKR
B15: 20-Hu-HC+601-LC-N34S (antibody, human IgG4 S228P, kappa, V domains shown)
VH: EVQLVESGGGLVQPGGSLRLSCAASGFVFSNYDMSWVRQAPGKRLEWVATISGGGGYTYYSDSVKGRFTISRDNAKNSLYLQMNSLRAEDTAVYYCASPYGHYGFEYWGQGTLVTVSS
VL: DIQMTQSPSSLSASVGDRVTITCSASQDISNYLSWYQQKPGKAPKVLIYFTSSLHSGVPSRFSGSGSGTDFTLTISSLQPEDFATYYCQQYSTVPWTFGQGTKVEIKR
B16: 20-Hu-HC+601-LC-T93N (antibody, human IgG4 S228P, kappa, V domains shown)
VH: EVQLVESGGGLVQPGGSLRLSCAASGFVFSNYDMSWVRQAPGKRLEWVATISGGGGYTYYSDSVKGRFTISRDNAKNSLYLQMNSLRAEDTAVYYCASPYGHYGFEYWGQGTLVTVSS
VL: DIQMTQSPSSLSASVGDRVTITCSASQDISNYLNWYQQKPGKAPKVLIYFTSSLHSGVPSRFSGSGSGTDFTLTISSLQPEDFATYYCQQYSNVPWTFGQGTKVEIKR
B17: 20-Hu-HC+601-LC-Y32F (antibody, human IgG4 S228P, kappa, V domains shown)
VH: EVQLVESGGGLVQPGGSLRLSCAASGFVFSNYDMSWVRQAPGKRLEWVATISGGGGYTYYSDSVKGRFTISRDNAKNSLYLQMNSLRAEDTAVYYCASPYGHYGFEYWGQGTLVTVSS
VL: DIQMTQSPSSLSASVGDRVTITCSASQDISNFLNWYQQKPGKAPKVLIYFTSSLHSGVPSRFSGSGSGTDFTLTISSLQPEDFATYYCQQYSTVPWTFGQGTKVEIKR
B18: 94-Fab-19H6-IgG1-LALA (bispecific antibody)
heavy: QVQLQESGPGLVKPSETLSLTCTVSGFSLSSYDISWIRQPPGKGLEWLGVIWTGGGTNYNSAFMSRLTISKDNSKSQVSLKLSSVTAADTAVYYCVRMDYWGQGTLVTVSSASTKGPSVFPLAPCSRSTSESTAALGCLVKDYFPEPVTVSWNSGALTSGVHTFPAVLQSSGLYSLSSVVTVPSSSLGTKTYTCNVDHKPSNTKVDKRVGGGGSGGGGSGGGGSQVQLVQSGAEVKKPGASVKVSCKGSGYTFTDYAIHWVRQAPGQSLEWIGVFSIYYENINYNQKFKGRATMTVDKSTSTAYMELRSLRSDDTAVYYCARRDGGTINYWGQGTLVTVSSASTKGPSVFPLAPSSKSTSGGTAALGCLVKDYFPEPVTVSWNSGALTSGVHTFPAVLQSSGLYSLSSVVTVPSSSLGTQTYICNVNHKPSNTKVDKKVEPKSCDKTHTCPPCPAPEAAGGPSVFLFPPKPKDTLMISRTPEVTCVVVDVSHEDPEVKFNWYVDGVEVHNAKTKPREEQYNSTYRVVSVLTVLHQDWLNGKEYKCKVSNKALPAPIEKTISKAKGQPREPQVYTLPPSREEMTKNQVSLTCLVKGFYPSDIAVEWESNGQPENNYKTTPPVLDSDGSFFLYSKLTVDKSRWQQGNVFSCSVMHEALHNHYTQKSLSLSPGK
light: DVVMTQSPLSLPVTLGQPASISCRSSQSLVHSNGNTYLHWYQQRPGQSPRLLIYKVSNRFSGVPDRFSGSGSGTDFTLKISRVEAEDVGVYFCSQSTHIPWTFGQGTKVEIKRTVAAPSVFIFPPSDEQLKSGTASVVCLLNNFYPREAKVQWKVDNALQSGNSQESVTEQDSKDSTYSLSSTLTLSKADYEKHKVYACEVTHQGLSSPVTKSFNRGEC
B19: 19H6-Fab-94-IgG1-LALA (bispecific antibody)
heavy: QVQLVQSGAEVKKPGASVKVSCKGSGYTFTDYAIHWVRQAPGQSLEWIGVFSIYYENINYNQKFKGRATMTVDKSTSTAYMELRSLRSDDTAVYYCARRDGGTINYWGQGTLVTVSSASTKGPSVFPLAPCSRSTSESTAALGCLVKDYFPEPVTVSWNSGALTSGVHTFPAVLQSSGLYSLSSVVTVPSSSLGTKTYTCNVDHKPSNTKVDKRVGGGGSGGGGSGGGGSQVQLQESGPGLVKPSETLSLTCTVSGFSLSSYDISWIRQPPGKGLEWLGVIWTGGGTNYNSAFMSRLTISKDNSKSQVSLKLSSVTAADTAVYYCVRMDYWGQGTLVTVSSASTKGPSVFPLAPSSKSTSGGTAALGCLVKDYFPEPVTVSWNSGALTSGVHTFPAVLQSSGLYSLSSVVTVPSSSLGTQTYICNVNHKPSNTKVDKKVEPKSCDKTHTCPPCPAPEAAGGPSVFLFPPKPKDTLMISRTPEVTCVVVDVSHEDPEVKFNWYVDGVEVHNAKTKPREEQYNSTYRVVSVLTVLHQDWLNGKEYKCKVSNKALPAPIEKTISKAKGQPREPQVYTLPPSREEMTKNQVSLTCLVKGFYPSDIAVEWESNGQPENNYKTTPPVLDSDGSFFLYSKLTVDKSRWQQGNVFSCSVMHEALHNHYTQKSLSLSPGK
light: DVVMTQSPLSLPVTLGQPASISCRSSQSLVHSNGNTYLHWYQQRPGQSPRLLIYKVSNRFSGVPDRFSGSGSGTDFTLKISRVEAEDVGVYFCSQSTHIPWTFGQGTKVEIKRTVAAPSVFIFPPSDEQLKSGTASVVCLLNNFYPREAKVQWKVDNALQSGNSQESVTEQDSKDSTYSLSSTLTLSKADYEKHKVYACEVTHQGLSSPVTKSFNRGEC

Assays:
PD1-His = molecular target: T1, PD1-His (human, UniProt Q15116 25-170); test: ELISA, plate coated with PD1-His
T1 construct: extracellular domain; In-house protein; also called extracellular domain protein of human PD-1 with a 6*His tag

[1] = molecular target: TGF-β1 (Sino Biological, Cat. No. 10804-HNAC) (UniProt P01137 279-390); test: ELISA, plate coated with TGF-β1
CD137-ECD-Fc = molecular target: T2, CD137-ECD-Fc (human, UniProt Q07011 24-186); test: ELISA, plate coated with CD137-ECD-Fc
T2 construct: extracellular domain; Bought; also called recombinant protein of the extracellular segment of human CD137 with Fc tags (Sino Biological 10041-H02H); not shown: Fc tag

HER2-ECD-His = molecular target: T3, HER2-ECD-His (human, UniProt P04626 23-652); test: ELISA, plate coated with HER2-ECD-His
T3 construct: extracellular domain; Bought; also called recombinant protein of the extracellular segment of human Her-2 with a polyhistidine tag (ACROBiosystems HE2-H5225); not shown: polyhistidine tag

T2 sequence (Q07011 24-186): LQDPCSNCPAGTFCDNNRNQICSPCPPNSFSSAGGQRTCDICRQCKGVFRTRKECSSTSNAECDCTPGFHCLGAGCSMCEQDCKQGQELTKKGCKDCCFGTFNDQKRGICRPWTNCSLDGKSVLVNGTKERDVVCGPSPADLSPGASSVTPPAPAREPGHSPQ
Chain of TGF-β1 (Sino Biological, Cat. No. 10804-HNAC) (P01137 279-390 limits assumed): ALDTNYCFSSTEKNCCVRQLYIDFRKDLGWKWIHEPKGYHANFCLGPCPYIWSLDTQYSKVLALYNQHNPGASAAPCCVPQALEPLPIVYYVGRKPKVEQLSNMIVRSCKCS
T1 sequence (Q15116 other isoform, or with tags, fused parts or gaps): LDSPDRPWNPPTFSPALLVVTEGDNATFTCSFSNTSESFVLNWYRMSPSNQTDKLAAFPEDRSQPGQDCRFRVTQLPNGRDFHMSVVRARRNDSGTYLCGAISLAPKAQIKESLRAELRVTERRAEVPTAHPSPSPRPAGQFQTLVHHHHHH

Row | Binder | EC50 [1] | EC50 (PD1-His) [pM] | further results
1 | B1 | – | – | binding result (PD1-His): no binding; binding result [1]: no binding
2 | B2 | 66.2 pM and 134 pM | – | binding result (PD1-His): no binding
3 | B3 | 526 pM and 1270 pM | – | binding result (PD1-His): no binding
4 | B4 | 41.4 pM | – | –
5 | B5 | – | – | binding result (CD137-ECD-Fc): no binding; EC50 (HER2-ECD-His): 139 pM
6 | B6 | – | – | EC50 (CD137-ECD-Fc): 391 pM; binding result (HER2-ECD-His): no binding
7 | B7 | – | – | EC50 (CD137-ECD-Fc): 634 pM; binding result (HER2-ECD-His): no binding
8 | B8 | 698 pM | 437 | –
9 | B9 | 363 pM | 2000 | –
10 | B10 | 108 pM | 3960 | –
11 | B11 | – | 485 | –
12 | B12 | – | 1030 | –
13 | B13 | – | 533 | –
14 | B14 | – | 526 | –
15 | B15 | – | 175 | –
16 | B16 | – | 486 | –
17 | B17 | – | 456 | –
18 | B18 | – | – | EC50 (CD137-ECD-Fc): 241 pM; EC50 (HER2-ECD-His): 158 pM
19 | B19 | – | – | EC50 (CD137-ECD-Fc): 27600 pM; EC50 (HER2-ECD-His): 120 pM
